Reference: the NTF2 design screens of Basanta et al. (2020)

Experiment: protease stability score; higher = more stable; yeast display proteolysis, trypsin and chymotrypsin;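 further: relative to predicted unfolded state with 0 unfolded-like and 1 meaning tenfold more protease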

**Q.** For “DHEEHYSRIAVQEVLHRMLTGDEESLVKLADPHTRMTIGDKELHGWELVFEFLRDWVHKFKNIRLHIHQHEVQGDKIHIEIRVLIDGKEQDVKIHAEKIDGKWIYRQSHFR”, which protease stability score is on record?
**A.** 0.751

**Q.** Which protease stability score does the source give for “DHEEKAKKFFDDLLRAVKHNDETQLERLFDKNVRFNVGEHNFRGREEFVKMVRTMVEQVDHVTATIVSIETNGDKVNLVAQWDMSHNGNSKRIRVLVVLDDNNGRVVAREMSEK” here?
**A.** 1.98

**Q.** Which protease stability score does the source give for “DHEEKEARRLLELIWKLIQTGDEHFLRELMDPHARISIDGVRLHGMEDIREFLHRYFKHHGYRWHRQRETEKHVVNGVQILFGEHDGEVDGKRDNTRSRLIFLVIDGKLQELEVNNV” here?
**A.** 0.855

**Q.** Which protease stability score does the source give for “DHEEKHLEHFLHLITHLEHTGDERTLEKLVDPHVRHEFNGKELHGRERAVRWSEELRQKMGADHWSIKRVNVFDGVVHLHTELEVNGVRVHFHIDVRVVDGRVKHIKIRNE” here?
**A.** 0.861

**Q.** Which protease stability score does the source give for “DHEEKHMIKIARLILLLWFTGDEDTFSRLADPNVRVIIIWNGKEIHSHGMERFSEDRKRHEEEMRLKDFRIDEVRAVGDKIHMRVTIHLIQGDKEREIDLEIRIVLVNGKLKTIEFIFH” here?
**A.** 2.63

**Q.** With “DHEEKIWEEVLKELVHQFLTGDWKTRTQMADPEVRVESRVGDKFVRMHGREYLRMLMEFLHEQIKNATVTLHSFRVVDGRNEIKLRAEIGDKTHEIDMHYFVVDGRIKSLHVRTWEL” as the sequence, how does the protease stability score read?
**A.** 1.05

**Q.** Which protease stability score does the source give for “DHEEKKAKELLHLIVELLITGDEDTLSRLLDPNTRWIINGRHLHGMHVFEEWVRRLKEQYKGVTVHIEIEDSKVVGEKARSEIRLIINIGDKVHDIESRLEIVVIDGKMRSLRFEFK” here?
**A.** 1.19

**Q.** Which protease stability score does the source give for “DHEEKLSEDISRFLLELYLTGDPERLAKNADPNTKLIIDINGRHEDIHGREYIYKWSLDWFRKAGVTRVEFDLRSMDVQGEKAVIHGVNRVGDKDRHMTEIWIVVNGKLKEVRVKLE” here?
**A.** 1.28

**Q.** For “DHEEKLYELEIRLLQEIVETGDEETSHRLADPHARLNINGRHLVGREHFREFVHKIKGARLDIEEVRVQGDKVIIHGRWIQGDKELDVDFISRKIDGKWKFHSIHVH”, which protease stability score is on record?
**A.** 1.33

**Q.** Which protease stability score does the source give for “DHEENMLKLMVTLWTQSLRTGDEDTLFRLMDPHARDVVGDKEFHGREEVKHHLRELLLEIRIEDSHVEDFRVYDGVAEIDTRQHGIFNGKRLEYETRILVLKVNGRWIFTHVERR” here?
**A.** 0.592

**Q.** For “DHEERIISEQLKIELESTATGDESTLEELVDPTTKININGKHLHGRESILKLLVEYARRADHIEIRPEHVEVYGNKLIIHGEIRIEVGDKRHSTKVLLILRKVNGRWRLTEEKWD”, which protease stability score is on record?
**A.** 1.65

**Q.** For “DHEERNIEDFLRELLHSLITGDEHTYRRLMDPNMQLFVDGRTFVGWKEALKWYQEILRRIDVIENIEIEQFSVFDGRVFVRVHLHMRVGDKTHHSFVHILLVKINGKWRLEEHEVV”, which protease stability score is on record?
**A.** 1.79

**Q.** Which protease stability score does the source give for “DHEFEDSKRATEETLHLIETGNEEKIRQLADPHVRIIIFINGRDIHLHGREELSRHISEMGVDHRRWTELRLFEGHAENDVKVNFNGREFKVIIFVRKVNGRWVIERLEVHVI” here?
**A.** 2.25

**Q.** For “DHEHEEFEENLEHFEHHMKTGDFELLLKLADPHVKIHVNGRDYHGWEELKRVLETLGISKVKVEFHRIHLINGVAFNDGKMEVNGVHTKTHYVAKKVNGRWFMRSMEMN”, which protease stability score is on record?
**A.** 0.775

**Q.** For “DHEHRELRELIHRIEKNIRTGNWDVVEKMLDPHARIDIDGKEIHGRDRLVEEMVKQWEKMGVDHIEIKLEDYKVSENEVYLDMIFVIRVGDKVIFIDSHIISRKIDGRWIIHSIHFR”, which protease stability score is on record?
**A.** 1.95

**Q.** For “DHEHRFMEETLERLLHVWRTGDESLIHELADPEARSDVNGREHHGRERFVDTVRHLGVKHVELKDWTIQGEKVHLSTEVDVGDKTFDFEIIIYKINGKWLIHEMRVK”, which protease stability score is on record?
**A.** 0.945

**Q.** For “DHEKENIERSSRIMLRLYETGDEDELRKLADPHARSEVGEFEYHGREEVFRWLNLLIRELGAKHITIRDIKYVGNKLTLHMISHVDGRELNLEIWAIKIDGQWLLTTVHHK”, which protease stability score is on record?
**A.** 0.69

**Q.** Which protease stability score does the source give for “DHEKEVAERIMRLLFHQLETGDWRLESKMADPNVRLNFNGVHLHGMETSVKWLEELRIHSFRIRDMRIDIINGVAVADNDTETEITFDGVRIRTRTHLHIFVSKFDGRWHVSEIEIRIR” here?
**A.** 0.094

**Q.** With “DHEKKEIEDLLRELFEALFTGDEHILHRLLDPRTKLVINGRNYHGRETVRRFVLHIRIFFHHIEIESSEIQGEWIHLHIRVDFREEQGDKERRIDTHAVMHMLKVNGRWVIHEIVLH” as the sequence, how does the protease stability score read?
**A.** 1.54

**Q.** Which protease stability score does the source give for “DHEREDMRRFVQEVLRVIETGDEDIYMRLLDPHYKVDFNGREIIGREELLRFFRDLGVDRIEADKEDVRSQGDKVITNTHITVNGRRIEMRVIVIKIDGQWVLHSLEFR” here?
**A.** 1.2

**Q.** With “DHETRWLRHVLKIWDHMVETGDWEKSERLADPNTKLVIDGVDLHGRRDYNRHMRELRVHHTEINDVELTNIGDKVHLYREVDYDITVDGRRIITHIELFLIIRKVDGRWILEEQEVNFR” as the sequence, how does the protease stability score read?
**A.** 0.236

**Q.** Which protease stability score does the source give for “DHEVAKTMMEEWQKALENGDDKKLKELYDPDGEWEADDEQDQGTEVIEKLMEKVKKQGLKFQVRKAKVEGDKFTVVYDLHVGNKTATFEVEVHVEGGRIKKVKAKADEEAKKLITEG” here?
**A.** 2.05

**Q.** With “DHHEEASHRVIEILLRAHRTGDWHELLRMMDPNTMLIVGDKTFHGREELEKILRHFVERAITIHDIKIESVENQGDKIHVHGHIDKRVNGRQVSIETEIDILKVNGRWFISTLRYH” as the sequence, how does the protease stability score read?
**A.** 1.89

**Q.** For “DHHEEIMVTIMELLVRWLETGDEKSLVELLDPDVRHDVNGVDLHGREHVSRWMREHLERYDHLEVEITHIEVQGDKVHLDGTLILIFNGRNVVMKVHIHTIIVNGRAHELRFRTE”, which protease stability score is on record?
**A.** 0.698

**Q.** With “DHHEELRHWFLEIYRRIMITGDEKELEKLIDPHAKLRINGREHVGMEYIQRIFDLLRHEIRFKDMDIREYHLVDGQIDDHSVLTLHINGKEVTRETRIVNRKVNGRWKIEVESIH” as the sequence, how does the protease stability score read?
**A.** 0.622

**Q.** Which protease stability score does the source give for “DHHEELVERIAREWIHAWKTGDEKRLRELMDPHVRMNFNGQELHGRELVTNFLHEFLERFDHQEHHIKRFTVVNGVMHIDGELDLNFDGRRYRHRVHIHIFVFDGRVKHVEIEIR” here?
**A.** 2.29

**Q.** Which protease stability score does the source give for “DHHEETIRHFAKLWVELWLTGDEKSLQTLADPHVRVHINGVDLHGRDAIHHFLRRIEERYKGLRIDVEEQRIVNGRTEMITEIHIGDKVWRTRLHVVVVDGRIHELSFKDE” here?
**A.** 2.25

**Q.** With “DHHEHDTKILMDLWLHALTTGDWRLLAELADPHVRFEVEFDGRRIEYHGRHSFEEHMKRLVDKIKNLTLTIHDVRVIGDFVHIEGETTWDGRTSSIHIHLKVINGRVKHIKVEER” as the sequence, how does the protease stability score read?
**A.** 1.92

**Q.** Which protease stability score does the source give for “DHHEKHLKHIFHLYIRAWITGNEKEMQDLADPNVRMHVGDKHVHGREEVRRLHHHLLTHIRLDHFHIDDHRVYDGVVEVKGIEDHNVNGQRHRFESTWIIVIVNGRIEEIEIRVH” here?
**A.** 1.16

**Q.** For “DHHKESSEYLVRDYYEYIETGDFKRMEELADPNMKVVVGDKTHHGRESLSVVYLRLGIKHWDIKRIHNIGNKIRIHSTIFVDGVDMHEHSHAEKIDGRWLLRELSFE”, which protease stability score is on record?
**A.** 0.319

**Q.** With “DHHRKETEELAELFFENLLTGNWEIHEHLLDPDVKLEQGDKINVGRESYSEWLEYVKKHIRIRDWKIRHVHVFNGRVHLETEVHMEYGDKHHVVDMHISIDVINGRFKTVRIEIK” as the sequence, how does the protease stability score read?
**A.** 2.1

**Q.** For “DHIDEDAAHVSRVLLTLLRTGDEETLFQLLDPNMRVDVNGVELHGREEWWKHVYRRNKELGMEVKYHLHKLTVINGVAHIDFRIEIYIGDKRIEYRHEVHIEKINGVWLVREIREG”, which protease stability score is on record?
**A.** 1.47

**Q.** With “DHIEEDIEEAERIMKEVNHTGDWETLERNFDPNVRLDIDGRTFHGMETYTKWFREIRIEDSRVKSIELQGDKIRYDTILHGIINGKRDTVKTHLIAVKVNGRWFIKVYSLH” as the sequence, how does the protease stability score read?
**A.** 1.05

**Q.** For “DHIEEELIRWLELLRNALETGDEELVVKLVDPRYRLIIGDKHHHGMEEWSKILKEESERVKNARIELHLRHLRLFNGQADMEVENVVRYNGVTIIIDVRIHLLKVNGRWKEREVREG”, which protease stability score is on record?
**A.** 1.33

**Q.** For “DHKDELAHRLVEHILKLLLTGDEEHWYELLDPNVRIHINGRNSVGREEALKVIQFFWELLGVKHIELKEVRFQGDKVHSDTRLDINGVKSRVRIEVIIINGRIDEVRIDIR”, which protease stability score is on record?
**A.** 2.25

**Q.** Which protease stability score does the source give for “DHKDELNEHIMKVWIHFLETGDEEFLYDLMDPHARLDFNGREIHGREILYEFWKRWNKRFPNRIDFLDSVRVIGDKVEMDTTLRIDGVRHETEIRIHVYDGKLKHIEYHIR” here?
**A.** 1.4
